According to the DeepSol protein solubility set:

Test: soluble on expression in E. coli; label from the status in PepcDB or PDB records

Row | Sequence | soluble on expression in E. coli
1 | GAMGNICNSGGVSRTYSPPTSPVYGSGVSSPSRFVGQYTLTSIHQLSSEERENFLDAHDPMRVYDLNSETSVYRTTQREYVRNGYATGNPNSGAIIALHEELQESPYAQHIGARPDQADAYRPRTAHVSSLNTPSLNVMAGQGALSALRGYAGSDHVTTEMRLGDFLDQGGKVYSDTSAMSAGGDSVEALIVTLPKGRKVPVNILD | soluble
2 | SLGGLKLGDLCRLKGQETNTLQGLGLVVGLQGTGDGDAAPKGRALARMMQLMGGPMAVDAAGRLNIEDVGDAKNVAMVFVSATIPTVGAQQGDVLDVTINAISAKSLDGGYLMLTPMLGPRADNPTVYGMAEGRISVSADSPPTSATIQGGLKMETSVRASYVHDNRITLVIDRDFADFSTAHMIEEEVNSLTSFTIGDRNVSRLASPNHQGTGQDGNIALARAIDQLHVEVVIPPTYRDNPIKFIAFLLDIVIPLSNRGKRVVINEADGVVVIGEDVEIAPVLVTHRNLRIEAGGGGRFVEVGPDGTPAAAKLKSLADALGALDVPTEDLIAIIKTLKAKGDLYGEVIFR | not soluble
3 | VLQTRNYTCGPAALVTVLQRLGVNTTEDELAGLAGTTEDGTTMQGLLEASRAKGVNATGMKLNISELKENMIAYTINDGTGHYTVINGITNDTVKLADPSLGNIEMNIEEFTEIYSGYALVINDPNNPR | not soluble
4 | MENSDVINFSCLEKELHSALQADRKYQRENDAKFRALNQKVASYEEFRDIVLASHLKPLDRNDISGSPRKQPWNPVACRTNYVCASSEQVQPQLSEVQPRSASEFIRDWRRFAGCSFEKYSLLVSLGGEALQKIFSTEIGLGLLGEFLLILSQCLKSGDEDRVTGVLDGLSKTGRFSINLSLLSQAEQEACEELFNKLKVAAGECHPYKDNSNTSVVCEAGLTHMEDNKTDITTTLKELAGKYGTEK | not soluble
5 | MASNSSSCPTPGGGHLNGYPVPPYAFFFPPMLGGLSPPGALTTLQHQLPVSGYSTPSPATIETQSSSSEEIVPSPPSPPPLPRIYKPCFVCQDKSSGYHYGVSACEGCKGFFRRSIQKNMVYTCHRDKNCIINKVTRNRCQYCRLQKCFEVGMSKESVRNDRNKKKKEVPKPECSESYTLTPEVGELIEKVRKAHQETFPALCQLGKYTTNNSSEQRVSLDIDLWDKFSELSTKCIIKTVEFAKQLPGFTTLTIADQITLLKAACLDILILRICTRYTPEQDTMTFSDGLTLNRTQMHNAGFGPLTDLVFAFANQLLPLEMDDAETGLLSAICLICGDRQDLEQPDRVDMLQEPLLEALKVYVRKRRPSRPHMFPKMLMKITDLRSISAKGAERVITLKMEIPGSMPPLIQEMLENSEGLDTLSGQPGGGGRDGGGLAPPPGSCSPSLSPSSNRSSPATHSP | soluble
6 | MHMELRMVGRLSWITLFTLFLVGCSSAPDDSSPHSQVNDPLESFNRQMWTINYDYLDPYVVRPVSLFYVGYVPKPVRSGIANFLSNLDEPASMVNNLLMGNGTKAVDHFNRFWINTSFGLLGLIDIASEAGIKKYDDKAFSDAVGHYGVGNGPYLMVPGYGPYTVREVTDVVDGMYFPLAYLNIWAGVGKWALEGMETRAALVSQEALLQDSPDPYSLARDAYLQRQAFKAEIQVDDYDPEEEEYLDEYLNEGL | not soluble
7 | LNDPLDSGRFSRKQLDKKYKHAGDFGISDTKKNRETLTKFRDAIEEHLSDKDTVEKGTYRREKGSKVYFNPNTMNVVIIKSNGEFLSGWKINPDADNGRIYLETGEL | soluble
8 | MAKGTPVTLTTNTEGATIYYTLDGSNPTNKSVRYNGRIVVNENSVIKAIAEKEGLTSSAISTFSFVIVNNEPVRIHDIQGKSHLSPYNGKKVYNVEGVVTALDKNGFYIEDNQPDNDPATSEGMYVYKKDANVAVGDLIQVDGVVEEYVGPGYAERFDTDLTTTEIKASRVVVIAKDQVLPAPIVLGENGVKIPDQIIDNDAFGLFDPNEDAIDFYESVEGMRVTMPTPKIIAPQKNGNLYVTVKNGGNKVVTKYGTPVLDENQLNPERLSVKVPRDYVAKVGDTFTGDITGVVGYDYGSFRIAPITELPSVVDGGFKQIGANIQPRLEHHHHHH | not soluble
9 | MTRVIIDGDACPVVDSVIELTTGTGIFVTILRSFSHYSNKVLPNHVETIYIDDGPDAVDYKIVKLATPEDIVITQDYGLASLLLSKVKIVMHHKGHLYRSSNIDMLLQQRYNNAQIRKQGGRHKGPPPFSKEDKKQFERAFKSVIKQLLEHHHHHH | not soluble
10 | MEHKKSTDSRSCSQLSTSMDNIQRNLMLLEIEKNEKSSFDDVITGAESDNGWEDCLRETESVQSQWITEQSTIAYPETTRVNCDGPQSYYELADLNYKPAENTVRLARVPSQYQLDALSEIFVFDVPQHIAVKKVEASFLPKYVNTSSEVAQNSVNTTPYFVNSEYVSEMLCNEYSETY | not soluble
